Drawing on the supplement of paper PMC9233669, this text covers self-aminoacylation for 25 sequences.

Variants at the floor of the assay were thinned out.

In one data set the test system is biotinyl-Phe-oxazolone. Put plainly: self-aminoacylation, catalytic enhancement (BFO) (fold over background); higher = more active; k-Seq, kA / k0A0; sequences stand for … in GGGAAUGGAUCCACAUCUACGAAUUC…UUCACUGCAGACUUGACGAAGCUG
The procedure, abridged: (§1)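 Mutagenized RNA pools (0.43 μM; 21-nt variable region) were treated with 2–1250 μM of each biotinyl-aminoacyl-oxazolone. Conditions were 50 μL HEPES/NaCl/KCl/MgCl2/CaCl2 buffer, 5% acetonitrile, pH 6.9–7.0, room temperature, 90 minutes. Catalytic enhancement, the median kA relative to the uncatalyzed rate, was derived from streptavidin capture, qPCR and Illumina sequencing.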

In a further data set the test system is biotinyl-Ile-oxazolone. Put plainly: self-aminoacylation, catalytic enhancement (BIO) (fold over background); higher = more active; k-Seq, kA / k0A0; sequences stand for … in GGGAAUGGAUCCACAUCUACGAAUUC…UUCACUGCAGACUUGACGAAGCUG
The procedure, abridged:
as §1

Another data set relates to biotinyl-Met-oxazolone. Briefly: self-aminoacylation, catalytic enhancement (BMO) (fold over background); higher = more active; k-Seq, kA / k0A0; sequences stand for … in GGGAAUGGAUCCACAUCUACGAAUUC…UUCACUGCAGACUUGACGAAGCUG
The procedure, abridged: as §1

The subject of the next data set is biotinyl-Val-oxazolone. Briefly: self-aminoacylation, catalytic enhancement (BVO) (fold over background); higher = more active; k-Seq, kA / k0A0; sequences stand for … in GGGAAUGGAUCCACAUCUACGAAUUC…UUCACUGCAGACUUGACGAAGCUG
In outline:
as §1

For another data set, the system named is biotinyl-Leu-oxazolone. Put plainly: self-aminoacylation, catalytic enhancement (BLO) (fold over background); higher = more active; k-Seq, kA / k0A0; sequences stand for … in GGGAAUGGAUCCACAUCUACGAAUUC…UUCACUGCAGACUUGACGAAGCUG
The procedure, abridged: as §1

Another data set relates to biotinyl-Trp-oxazolone. Briefly: self-aminoacylation, catalytic enhancement (BWO) (fold over background); higher = more active; k-Seq, kA / k0A0; sequences stand for … in GGGAAUGGAUCCACAUCUACGAAUUC…UUCACUGCAGACUUGACGAAGCUG
The procedure, abridged:
as §1

On to “AUCCACCUAUGUCAUCGGGUG [Fam2.2 aminoacylation ribozyme variant]”, for which the self-aminoacylation in the data set on biotinyl-Phe-oxazolone amounted to 49.9; with biotinyl-Ile-oxazolone it was 4.42; with biotinyl-Met-oxazolone, 6.38; in the data set with biotinyl-Val-oxazolone, 4.12; in the data set on biotinyl-Leu-oxazolone, 7.91; in the data set with biotinyl-Trp-oxazolone it was 5.8.
For the sequence “AAGUUAGCUAUUAGUCGCAAG [Fam3.1 aminoacylation ribozyme variant]”, the self-aminoacylation with biotinyl-Phe-oxazolone was 2.06; in the data set on biotinyl-Ile-oxazolone, 1.99; in the data set on biotinyl-Met-oxazolone it was 1.34; in the data set on biotinyl-Val-oxazolone it was 1.6; with biotinyl-Leu-oxazolone, 1.82; in the data set on biotinyl-Trp-oxazolone, 1.74.
As to “AUUCACCUACGGCAUCGGGUG [Fam2.2 aminoacylation ribozyme variant]”, the self-aminoacylation with biotinyl-Phe-oxazolone is 22.2; with biotinyl-Ile-oxazolone, 2.29; in the data set on biotinyl-Met-oxazolone it was 2.91; in the data set with biotinyl-Val-oxazolone it was 2.7; with biotinyl-Leu-oxazolone, 3.86; with biotinyl-Trp-oxazolone it was 3.22.
On to “AAGUUUGCUAAUAGUCGCGAG [Fam3.1 aminoacylation ribozyme variant]”, for which the self-aminoacylation in the data set with biotinyl-Phe-oxazolone worked out at 2.01; in the data set with biotinyl-Ile-oxazolone, 1.33; in the data set with biotinyl-Met-oxazolone, 1.33; with biotinyl-Val-oxazolone it was 1.2; in the data set with biotinyl-Leu-oxazolone it was 1.29; in the data set with biotinyl-Trp-oxazolone, 2.
As to “CUAUUUCAAACAAUCCGUCUG [Fam1A.1 aminoacylation ribozyme variant]”, the self-aminoacylation in the data set on biotinyl-Phe-oxazolone is 0.946; with biotinyl-Ile-oxazolone it was 0.826; with biotinyl-Met-oxazolone, 0.818; in the data set with biotinyl-Val-oxazolone it was 0.735; with biotinyl-Leu-oxazolone, 0.715; with biotinyl-Trp-oxazolone, 0.595.
“AUUCACCUAGGUCCUCGGAUG [Fam2.2 aminoacylation ribozyme variant]”: the self-aminoacylation with biotinyl-Phe-oxazolone is 0.427; in the data set with biotinyl-Ile-oxazolone, 0.964; with biotinyl-Met-oxazolone, 0.966; in the data set with biotinyl-Val-oxazolone, 0.89; in the data set on biotinyl-Leu-oxazolone, 1.07; with biotinyl-Trp-oxazolone it was 0.587.
Turning to “AUCACCCUGGUCACCGAGUGA [Fam2.1 aminoacylation ribozyme variant]”, the self-aminoacylation is 96.6 in the data set on biotinyl-Phe-oxazolone; 6.34 in the data set with biotinyl-Ile-oxazolone; 17.5 in the data set with biotinyl-Met-oxazolone; 5.92 in the data set with biotinyl-Val-oxazolone; 15.4 with biotinyl-Leu-oxazolone; 13.2 in the data set with biotinyl-Trp-oxazolone.
“CCACACUUCAAGCAAGCGGAC [Fam1B.1 aminoacylation ribozyme variant]”: the self-aminoacylation was 0.42 in the data set with biotinyl-Phe-oxazolone; 0.959 in the data set with biotinyl-Ile-oxazolone; 1.16 in the data set on biotinyl-Met-oxazolone; 1.15 in the data set on biotinyl-Val-oxazolone; 0.794 in the data set with biotinyl-Leu-oxazolone; 0.604 in the data set on biotinyl-Trp-oxazolone.
On to “CUACUCCAGACAAUCGGUCUG [Fam1A.1 aminoacylation ribozyme variant]”, for which the self-aminoacylation in the data set with biotinyl-Phe-oxazolone was determined as 0.42; with biotinyl-Ile-oxazolone it was 1; with biotinyl-Met-oxazolone, 1.29; in the data set with biotinyl-Val-oxazolone, 1.14; in the data set with biotinyl-Leu-oxazolone it was 1.07; with biotinyl-Trp-oxazolone, 0.923.
Regarding “AUUACACUGGUCAUCGAGCGA [Fam2.1 aminoacylation ribozyme variant]”, the self-aminoacylation in the data set on biotinyl-Phe-oxazolone amounted to 0.889; in the data set with biotinyl-Ile-oxazolone, 1.64; in the data set on biotinyl-Met-oxazolone, 2.15; with biotinyl-Val-oxazolone it was 1.96; in the data set with biotinyl-Leu-oxazolone, 2.29; with biotinyl-Trp-oxazolone, 1.8.
“AAGUUUGCUAAGAGUCGAAAG [Fam3.1 aminoacylation ribozyme variant]”: the self-aminoacylation with biotinyl-Phe-oxazolone was determined as 1.3; with biotinyl-Ile-oxazolone it was 0.804; in the data set on biotinyl-Met-oxazolone it was 0.817; in the data set on biotinyl-Val-oxazolone, 0.785; in the data set on biotinyl-Leu-oxazolone it was 0.602; with biotinyl-Trp-oxazolone, 0.757.
For “AAGUUUGCUAGUAGUCGCAAG [Fam3.1 aminoacylation ribozyme variant]”, the self-aminoacylation came out at 1.13 in the data set with biotinyl-Phe-oxazolone; 0.746 with biotinyl-Ile-oxazolone; 0.745 with biotinyl-Met-oxazolone; 0.773 in the data set with biotinyl-Val-oxazolone; 0.706 in the data set on biotinyl-Leu-oxazolone; 0.851 in the data set with biotinyl-Trp-oxazolone.
As to “AUGUUUGCUAAUAGUCGCUAG [Fam3.1 aminoacylation ribozyme variant]”, the self-aminoacylation with biotinyl-Phe-oxazolone was found to be 1.82; in the data set with biotinyl-Ile-oxazolone, 1.19; in the data set with biotinyl-Met-oxazolone, 1.06; in the data set on biotinyl-Val-oxazolone, 1.08; in the data set on biotinyl-Leu-oxazolone, 1.06; with biotinyl-Trp-oxazolone it was 1.28.
With “CUUCGUCAAACAAUCGGUCUG [Fam1A.1 aminoacylation ribozyme variant]”, the self-aminoacylation with biotinyl-Phe-oxazolone stood at 9.15; with biotinyl-Ile-oxazolone, 1.87; in the data set on biotinyl-Met-oxazolone it was 1.65; with biotinyl-Val-oxazolone, 1.55; in the data set on biotinyl-Leu-oxazolone, 1.62; with biotinyl-Trp-oxazolone, 2.23.
For the sequence “AAGUUUGCUAAGAGUGGCAAG [Fam3.1 aminoacylation ribozyme variant]”, the self-aminoacylation in the data set with biotinyl-Phe-oxazolone is 0.543; in the data set with biotinyl-Ile-oxazolone it was 0.861; in the data set with biotinyl-Met-oxazolone, 0.955; in the data set with biotinyl-Val-oxazolone, 1.11; in the data set with biotinyl-Leu-oxazolone, 0.724; in the data set with biotinyl-Trp-oxazolone it was 0.872.
For “CCACACCUGAAGCAAUCGGUC [Fam1B.1 aminoacylation ribozyme variant]”, the self-aminoacylation was determined as 0.952 with biotinyl-Phe-oxazolone; 1.01 in the data set on biotinyl-Ile-oxazolone; 0.903 in the data set with biotinyl-Met-oxazolone; 1.18 in the data set with biotinyl-Val-oxazolone; 0.946 in the data set on biotinyl-Leu-oxazolone; 0.911 in the data set with biotinyl-Trp-oxazolone.
“CUACUUCAAACAAACGGACUG [Fam1A.1 aminoacylation ribozyme variant]”: the self-aminoacylation amounted to 0.548 with biotinyl-Phe-oxazolone; 0.684 in the data set with biotinyl-Ile-oxazolone; 0.473 in the data set with biotinyl-Met-oxazolone; 0.718 in the data set on biotinyl-Val-oxazolone; 0.546 in the data set with biotinyl-Leu-oxazolone; 0.574 in the data set on biotinyl-Trp-oxazolone.
As for “AUUAACCUGGUCAUCGAGUGU [Fam2.1 aminoacylation ribozyme variant]”, the self-aminoacylation with biotinyl-Phe-oxazolone is 5.48; in the data set on biotinyl-Ile-oxazolone, 2.33; in the data set on biotinyl-Met-oxazolone, 3.72; with biotinyl-Val-oxazolone, 2.61; in the data set on biotinyl-Leu-oxazolone, 4.39; with biotinyl-Trp-oxazolone it was 4.67.
For the sequence “AUUACCCUGGUCCUCGAGAGA [Fam2.1 aminoacylation ribozyme variant]”, the self-aminoacylation in the data set with biotinyl-Phe-oxazolone amounted to 0.376; in the data set with biotinyl-Ile-oxazolone it was 0.884; in the data set with biotinyl-Met-oxazolone, 0.757; in the data set with biotinyl-Val-oxazolone, 1.28; in the data set with biotinyl-Leu-oxazolone it was 1.32; in the data set on biotinyl-Trp-oxazolone, 0.889.
Turning to “AUUACCCUGGUAAUAGAGUGA [Fam2.1 aminoacylation ribozyme variant]”, the self-aminoacylation came to 125 with biotinyl-Phe-oxazolone; 6.19 with biotinyl-Ile-oxazolone; 16.2 in the data set with biotinyl-Met-oxazolone; 6.61 in the data set with biotinyl-Val-oxazolone; 16.1 with biotinyl-Leu-oxazolone; 17.9 in the data set on biotinyl-Trp-oxazolone.
In the case of “UCACACUUCAAGCAAUCGCUC [Fam1B.1 aminoacylation ribozyme variant]”, the self-aminoacylation with biotinyl-Phe-oxazolone worked out at 1.94; in the data set with biotinyl-Ile-oxazolone it was 1.43; in the data set with biotinyl-Met-oxazolone, 1.46; in the data set on biotinyl-Val-oxazolone, 1.32; in the data set on biotinyl-Leu-oxazolone, 1.3; with biotinyl-Trp-oxazolone, 1.45.
Regarding “GUACUUCAAACGAUCGGUCUG [Fam1A.1 aminoacylation ribozyme variant]”, the self-aminoacylation in the data set on biotinyl-Phe-oxazolone is 1.38; in the data set with biotinyl-Ile-oxazolone, 1.14; in the data set on biotinyl-Met-oxazolone, 1.13; with biotinyl-Val-oxazolone, 1.08; in the data set on biotinyl-Leu-oxazolone, 1.32; in the data set on biotinyl-Trp-oxazolone it was 1.8.
For the sequence “CUACUUCGUACAAUCGGUCUG [Fam1A.1 aminoacylation ribozyme variant]”, the self-aminoacylation was determined as 0.251 with biotinyl-Phe-oxazolone; 0.571 in the data set with biotinyl-Ile-oxazolone; 0.519 in the data set with biotinyl-Met-oxazolone; 0.685 with biotinyl-Val-oxazolone; 0.596 with biotinyl-Leu-oxazolone; 0.327 with biotinyl-Trp-oxazolone.
Take “AACGUUGCUAAUAGUCGCAAG [Fam3.1 aminoacylation ribozyme variant]”: the self-aminoacylation in the data set with biotinyl-Phe-oxazolone amounted to 2.3; in the data set on biotinyl-Ile-oxazolone, 1.64; in the data set on biotinyl-Met-oxazolone it was 1.81; in the data set on biotinyl-Val-oxazolone, 1.68; in the data set with biotinyl-Leu-oxazolone it was 1.66; in the data set with biotinyl-Trp-oxazolone, 1.97.
For the sequence “AUCCAACUAGGUCAUCGGGUG [Fam2.2 aminoacylation ribozyme variant]”, the self-aminoacylation is 80.9 in the data set on biotinyl-Phe-oxazolone; 5.82 with biotinyl-Ile-oxazolone; 8.53 with biotinyl-Met-oxazolone; 4.93 in the data set with biotinyl-Val-oxazolone; 9.99 in the data set on biotinyl-Leu-oxazolone; 8.01 in the data set on biotinyl-Trp-oxazolone.
